32 variants from the RNAGym collection of RNA variant scans (doi:10.7554/elife.80360) can be followed below.

Sequences and labels used below:
B1: HDV Ribozyme (parent)
chain: GGCCGGCAUGGUCCCAGCCUCCUCGCUGGCGCCGGCUGGGCAACAUUCCGAGGGGACCGUCCCCUCGGUAAUGGCGAAUGGGACCCA

The data set covers variants of B1. As to the kind of experiment: self-cleavage, relative activity (ratio to wild type); higher = more cleavage; co-transcriptional.
Regarding GGCCGGCAUGGUCCCAGCCUCCUCGCUGGCGCCGGCUGGGCAACAUUCCGAGGGGACCGUCCCCUCGGUAGUGGCGAAUAGGACCCA [A71G G80A], the self-cleavage was 0.288. Take GGCCGGCAUGGUCCCAGCCUCCUCGCUGGCGCCGGCUGGGCAACAUUCCGAGGGGACCGUCCCCUCGGUUAAGGCGAAUGGGACCCA [A70U U72A]: the self-cleavage stood at 0.415. Turning to GGCCGGCAUGGUCCCAGCCUCCUCGCUGGCGCCGGCUGGGCAACAUUCCGAGGGGACCGUCCCCUCGGUUAGGGCGAAUGGGACCCA [A70U U72G], the self-cleavage stood at 0.554. Consider GGCCGGCAUGGUCCCAGCCUCCUCGCUGGCGCCGGCUGGGCAACAUUCCGAGGGGACCGUCCCCUCGGUUAUGGCGAAUUGGACCCA [A70U G80U], for which the self-cleavage was 0.222. GGCCGGCAUGGUCCCAGCCUCCUCGCUGGCGCCGGCUGGGCAACAUUCCGAGGGGACCGUCCCCUCGGUUAUCGCGAAUGGGACCCA [A70U G73C]: the self-cleavage was determined as 0.332. Take GGCCGGCAUGGUCCCAGCCUCCUCGCUGGCGCCGGCUGGGCAACAUUCCGAGGGGACCGUCCCCUCGGUACUGGCGAAUGGGACACA [A71C C85A]: the self-cleavage is 0.578.

Turning to GGCCGGCAUGGUCCCAGCCUCCUCGCUGGCGCCGGCUGGGCAACAUUCCGAGGGGACCGUCCCCUCGGUACUGGCUAAUGGGACCCA [A71C G76U], the self-cleavage is 0.91. On to GGCCGGCAUGGUCCCAGCCUCCUCGCUGGCGCCGGCUGGGCAACAUUCCGAGGGGACCGUCCCCUCGGUAGUGGCGCAUGGGACCCA [A71G A77C], for which the self-cleavage is 0.45. Take GGCCGGCAUGGUCCCAGCCUCCUCGCUGGCGCCGGCUGGGCAACAUUCCGAGGGGACCGUCCCCUCGGUACUGGCGAACGGGACCCA [A71C U79C]: the self-cleavage came to 0.269. The value for GGCCGGCAUGGUCCCAGCCUCCUCGCUGGCGCCGGCUGGGCAACAUUCCGAGGGGACCGUCCCCUCGGUUAUGGCGAAUGGGACCCC [A70U A87C] was 0.98; that for GGCCGGCAUGGUCCCAGCCUCCUCGCUGGCGCCGGCUGGGCAACAUUCCGAGGGGACCGUCCCCUCGGUUGUGGCGAAUGGGACCCA [A70U A71G] was 1.09. As for GGCCGGCAUGGUCCCAGCCUCCUCGCUGGCGCCGGCUGGGCAACAUUCCGAGGGGACCGUCCCCUCGGUUUUGGCGAAUGGGACCCA [A70U A71U], the self-cleavage is 0.98. For GGCCGGCAUGGUCCCAGCCUCCUCGCUGGCGCCGGCUGGGCAACAUUCCGAGGGGACCGUCCCCUCGGUAGUUGCGAAUGGGACCCA [A71G G73U], the self-cleavage was 0.291. On to GGCCGGCAUGGUCCCAGCCUCCUCGCUGGCGCCGGCUGGGCAACAUUCCGAGGGGACCGUCCCCUCGGUACUAGCGAAUGGGACCCA [A71C G73A], for which the self-cleavage amounted to 0.45. The value for GGCCGGCAUGGUCCCAGCCUCCUCGCUGGCGCCGGCUGGGCAACAUUCCGAGGGGACCGUCCCCUCGGUACGGGCGAAUGGGACCCA [A71C U72G] was 0.465. On to GGCCGGCAUGGUCCCAGCCUCCUCGCUGGCGCCGGCUGGGCAACAUUCCGAGGGGACCGUCCCCUCGGUACCGGCGAAUGGGACCCA [A71C U72C], for which the self-cleavage amounted to 0.185.

Regarding GGCCGGCAUGGUCCCAGCCUCCUCGCUGGCGCCGGCUGGGCAACAUUCCGAGGGGACCGUCCCCUCGGUACAGGCGAAUGGGACCCA [A71C U72A], the self-cleavage stood at 0.332. Turning to GGCCGGCAUGGUCCCAGCCUCCUCGCUGGCGCCGGCUGGGCAACAUUCCGAGGGGACCGUCCCCUCGGUUAUGGCGCAUGGGACCCA [A70U A77C], the self-cleavage is 0.0978. GGCCGGCAUGGUCCCAGCCUCCUCGCUGGCGCCGGCUGGGCAACAUUCCGAGGGGACCGUCCCCUCGGUUAUGGCCAAUGGGACCCA [A70U G76C]: the self-cleavage was 1.

GGCCGGCAUGGUCCCAGCCUCCUCGCUGGCGCCGGCUGGGCAACAUUCCGAGGGGACCGUCCCCUCGGUUAUGGCAAAUGGGACCCA [A70U G76A]: the self-cleavage was determined as 1.02.

With GGCCGGCAUGGUCCCAGCCUCCUCGCUGGCGCCGGCUGGGCAACAUUCCGAGGGGACCGUCCCCUCGGUGAAGGCGAAUGGGACCCA [A70G U72A], the self-cleavage is 0.594. Regarding GGCCGGCAUGGUCCCAGCCUCCUCGCUGGCGCCGGCUGGGCAACAUUCCGAGGGGACCGUCCCCUCGGUGAUGGCGAAUGGUACCCA [A70G G82U], the self-cleavage was 0.415.

Turning to GGCCGGCAUGGUCCCAGCCUCCUCGCUGGCGCCGGCUGGGCAACAUUCCGAGGGGACCGUCCCCUCGGUUAUGGCGAAUGGGGCCCA [A70U A83G], the self-cleavage came to 0.902. Take GGCCGGCAUGGUCCCAGCCUCCUCGCUGGCGCCGGCUGGGCAACAUUCCGAGGGGACCGUCCCCUCGGUUAUGGCGAAUGGGAGCCA [A70U C84G]: the self-cleavage came to 0.541.

In the case of GGCCGGCAUGGUCCCAGCCUCCUCGCUGGCGCCGGCUGGGCAACAUUCCGAGGGGACCGUCCCCUCGGUACUGGCGAAUCGGACCCA [A71C G80C], the self-cleavage stood at 0.302.

GGCCGGCAUGGUCCCAGCCUCCUCGCUGGCGCCGGCUGGGCAACAUUCCGAGGGGACCGUCCCCUCGGUAGUGGCGAGUGGGACCCA [A71G A78G]: the self-cleavage stood at 0.772. Consider GGCCGGCAUGGUCCCAGCCUCCUCGCUGGCGCCGGCUGGGCAACAUUCCGAGGGGACCGUCCCCUCGGUAGUGGCGAUUGGGACCCA [A71G A78U], for which the self-cleavage was 0.229. Regarding GGCCGGCAUGGUCCCAGCCUCCUCGCUGGCGCCGGCUGGGCAACAUUCCGAGGGGACCGUCCCCUCGGUAGUGGCGAAUGGGCCCCA [A71G A83C], the self-cleavage worked out at 0.415.

As for GGCCGGCAUGGUCCCAGCCUCCUCGCUGGCGCCGGCUGGGCAACAUUCCGAGGGGACCGUCCCCUCGGUAGUGGCGAAUGGGAACCA [A71G C84A], the self-cleavage is 1.02. With GGCCGGCAUGGUCCCAGCCUCCUCGCUGGCGCCGGCUGGGCAACAUUCCGAGGGGACCGUCCCCUCGGUAGUGGCGAAUGGGACCAA [A71G C86A] the figure was 1.19. Turning to GGCCGGCAUGGUCCCAGCCUCCUCGCUGGCGCCGGCUGGGCAACAUUCCGAGGGGACCGUCCCCUCGGUAGUGGCGAAUGGGACCUA [A71G C86U], the self-cleavage came out at 0.665.

For GGCCGGCAUGGUCCCAGCCUCCUCGCUGGCGCCGGCUGGGCAACAUUCCGAGGGGACCGUCCCCUCGGUUAUGGCGAAGGGGACCCA [A70U U79G], the self-cleavage is 0.617.
